Source: article PMC3729527, “Redox-sensitive DNA binding by homodimeric Methanosarcina acetivorans MsvR is modulated by cysteine residues”

Tests used:
[1] = target: T1, MaMsvR (Methanosarcina acetivorans C2A) (UniProt Q8TQT2); experiment: EMSA; conditions: EMSA at room temperature, 10 nM DNA and 200 nM MsvR (50 nM DNA and 1 uM protein for 50 bp oligos), with or without 5 mM DTT; binding buffer as in cited ref 9 …
T1 sequence: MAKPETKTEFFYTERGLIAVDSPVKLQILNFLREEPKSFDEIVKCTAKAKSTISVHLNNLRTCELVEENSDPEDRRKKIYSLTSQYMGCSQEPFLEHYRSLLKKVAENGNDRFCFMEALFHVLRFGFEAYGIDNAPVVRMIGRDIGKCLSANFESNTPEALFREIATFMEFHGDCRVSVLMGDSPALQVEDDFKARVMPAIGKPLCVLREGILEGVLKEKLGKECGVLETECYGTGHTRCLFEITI

[2] = target: Methanosarcina acetivorans MsvR (methanogen specific V4R domain regulator), N-terminal Strep-tag (Methanosarcina acetivorans C2A); experiment: SEC; Superdex 200 HiLoad 16/600; 20 mM Tris pH 8, 10 mM MgCl2, 200 mM KCl; 0.5 ml/min; non-reduced MaMsvR (0.65 mg loaded) and reduced MaMsvR (0.84 mg, 2 mM beta-ME in the elution buffer); calibrated with ferritin, conalbumin, carbonic anhydrase, ribonuclease A
[3] = target: Methanosarcina acetivorans MsvR (methanogen specific V4R domain regulator), N-terminal Strep-tag (Methanosarcina acetivorans C2A); experiment: SDS-PAGE without boiling, with immunoblot (Strep-tag antibody); 1 pmol protein in Laemmli sample buffer without or with 5 mM DTT, room temperature five minutes, not boiled; reduced and boiled sample as control; oligomers that withstand SDS, likely stabilised by disulfide bonds
[4] = test system: T2, MaMsvR C232A C232A (Methanosarcina acetivorans C2A), ORF:da4acb06; experiment: EMSA; conditions: EMSA at room temperature, 10 nM DNA and 200 nM MsvR (50 nM DNA and 1 uM protein for 50 bp oligos), with or without 5 mM DTT; binding buffer as in cited ref 9 …
T2 sequence: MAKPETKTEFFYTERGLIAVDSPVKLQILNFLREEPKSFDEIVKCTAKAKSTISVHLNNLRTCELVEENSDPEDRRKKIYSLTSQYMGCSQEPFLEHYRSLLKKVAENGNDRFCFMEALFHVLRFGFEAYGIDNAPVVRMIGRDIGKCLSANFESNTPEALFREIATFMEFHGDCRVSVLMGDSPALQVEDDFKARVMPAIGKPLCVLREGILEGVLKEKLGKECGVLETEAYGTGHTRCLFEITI

[5] = test system: T3, MaMsvR C240A C240A (Methanosarcina acetivorans C2A), ORF:da4acb06; experiment: EMSA; conditions: EMSA at room temperature, 10 nM DNA and 200 nM MsvR (50 nM DNA and 1 uM protein for 50 bp oligos), with or without 5 mM DTT; binding buffer as in cited ref 9 …
T3 sequence: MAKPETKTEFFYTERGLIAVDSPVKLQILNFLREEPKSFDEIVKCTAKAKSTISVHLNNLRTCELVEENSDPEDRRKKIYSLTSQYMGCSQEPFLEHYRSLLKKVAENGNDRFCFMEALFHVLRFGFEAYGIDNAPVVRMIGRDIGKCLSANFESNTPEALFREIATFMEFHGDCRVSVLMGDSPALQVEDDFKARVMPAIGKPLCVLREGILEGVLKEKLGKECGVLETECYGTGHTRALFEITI

[6] = test system: T4, MaMsvR C206A C206A (Methanosarcina acetivorans C2A), ORF:da4acb06; experiment: EMSA; conditions: EMSA at room temperature, 10 nM DNA and 200 nM MsvR (50 nM DNA and 1 uM protein for 50 bp oligos), with or without 5 mM DTT; binding buffer as in cited ref 9 …
T4 sequence: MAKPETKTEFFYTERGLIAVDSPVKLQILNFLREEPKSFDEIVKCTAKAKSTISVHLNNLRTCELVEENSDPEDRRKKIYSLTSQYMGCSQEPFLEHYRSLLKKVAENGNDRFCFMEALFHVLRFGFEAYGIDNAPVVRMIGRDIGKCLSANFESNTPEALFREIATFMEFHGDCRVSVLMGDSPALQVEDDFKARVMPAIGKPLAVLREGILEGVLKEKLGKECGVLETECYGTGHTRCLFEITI

[7] = target: T5, MaMsvR (Methanosarcina acetivorans C2A, UniProt Q8TQT2 1-246); experiment: EMSA; reducing; EMSA at room temperature, 10 nM DNA and 200 nM MsvR (50 nM DNA and 1 uM protein for 50 bp oligos), with or without 5 mM DTT; binding buffer as in cited ref 9; protein stock in 20 mM Tris pH 8, 10 mM MgCl2, 200 mM KCl, glycerol; conditions: protein: recombinant; tags: N-terminal Strep-tag; chain copies: 2; blunt
T5 sequence: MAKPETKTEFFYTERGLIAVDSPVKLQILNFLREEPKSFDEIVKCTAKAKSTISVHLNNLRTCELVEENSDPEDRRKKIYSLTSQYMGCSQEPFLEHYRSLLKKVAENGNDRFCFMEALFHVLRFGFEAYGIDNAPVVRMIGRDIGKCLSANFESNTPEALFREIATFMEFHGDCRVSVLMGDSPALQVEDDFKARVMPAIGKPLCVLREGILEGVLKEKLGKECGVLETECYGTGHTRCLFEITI

[8] = target: T5, MaMsvR; experiment: EMSA; 5 mM DTT; 1 uM protein, 50 nM DNA; EMSA at room temperature, 10 nM DNA and 200 nM MsvR (50 nM DNA and 1 uM protein for 50 bp oligos), with or without 5 mM DTT; binding buffer as in cited ref 9; protein stock in 20 mM Tris pH 8, 10 mM MgCl2, 200 mM KCl, glycerol; conditions: protein: recombinant; tags: N-terminal Strep-tag; chain copies: 2; blunt

AAAGTAAGAAATTCTCTCTATATGTATGGGTTTATGATATCTCAGACCTGAAAATATGCGGATAAAATTCGGATAAAACAGGATTTCCTGATTTGGAGGGAAAGTAATGAAGTGTTACGAATGTGCCAGAGAGGGCAAAGATACGGATGCTGTGGGAATTTGTATCGTATGTGGAAGAGGAGTTTGCAAAGAACACCTTATCCATGAGGAAACACCTGCGTGGGAAGGCGACTATCCTAT (double strand) [Ma P3734]
binding [1]: no binding

AGATCCCCCAGCGTCTCCAGAACTTGCGGAGTGAATCCCATTTTTTCTCCCATACTCTCCAGTATCTCTTCATGCTCTGTCATTTTTCCAGTCTCCTTACTCCGATAACTACCAGCTGTTGATATTTATATTGGTTATTTATATTTATTATTAATTAATATTTCTCAAATCTGTGTTCAGGCCTTTTACTTCCTCATTCCTGTCCAAAGGCCCTTTATTAAAGTCCGCATCCTTTGTTATGGGCTGCACA (double strand) [Ma P3736]
binding [1]: no binding

AGGCTTTACAAAGTAAATAAAGGGGAGAAAAAGGGTTAAAACCTGAATAAGAAGTAAAGAAAACTCCGATATAAGCAAAAGTATTTATAGAATCCGATTACAAAATCAGAGGTTAGAAGGAATTTATATTAACAAAAAGAAGCTTGGAGGATAATATGGCAAAAGTTATACCATTTGCACCAATCGAACGCCTGATAAGGACGGCTGGTGCCCACAGAGTAAGTGAGA (double strand) [Ma PhmaA]
binding [1]: no binding

CCGAAAACATTCCTGGCAATCTCCGGGATATTATATATTTCCATACTTTTCCTCCAACTCTCTTCTGAATCATTTACTCTCAAAATAAAATGTACCAAAATACGGTACACAGAAATCTTTAACTGTTCCCCACAAGCTCAAAACAGTATTATGGTGTAGCTATGTTAATTCGATATATTTATTATATTGATTAAATATTTTTGATAAGAACCTCTTTCTATTTTTACCTGTTCGTTCTGTCAGA (double strand) [Ma P3381]
binding [1]: no binding

GCAGATCTCGCAGCGGTACTTTTCTCCTTTTCTGGATACAGCCATAGCTACTTCACCTCCTTGCTTCTGAATTTAAATACCTCAAAACTTTCAAGCGGGCTTTCCCCTTCCCTGTAATCCCGAAATTACTCCGGGTTTCACCAACACTCATACATGTTAACCATTCTTTGTATATAATTGTAAGGACTTTTTAAAAAGTAACATAAATTTTTTCCTTCTATTCGGGTATGTCTTA (double strand) [Ma P4664]
binding [1]: no binding

Methanosarcina acetivorans MsvR (methanogen specific V4R domain regulator), N-terminal Strep-tag (natural protein)
stoichiometry N [2]: 2 | stoichiometry N [3]: 2

TCAGCTTTTCTTACGTTTGACCGTTATAGGAATAATTTCGGCCTTCAACTCTGCAATGGCTACACCCAGGGGGTCCAGCCGCCCGTCATCATCAACCAGGACAGGAGCCCCCATTGCTATCTGCAATGCTCTTGCACCTACAATTCGTGCACGCTCGAACCGGGTATACTTTT (double strand) [Ma rpoK]
binding [1]: no binding

TTACTTTGCCGTTTCCCCCCATTTTCTTTATATCTTTTTATATCTGTATTATTATATTTCAAACATGATTATTCGTAGTCACGCGAACGTTTTATATATTCAAAACGCAACTTATCTAAAGATATTATGGCAAAACCTGAGACCAAAACTGAATTCTTTTATACCGAAAGAGGGCTCATAGCCGTAGACAGCCCTGTTAAACTCCAGATCCTGAATTTTCTCAGGG (double strand) [Ma PmsvR (PCR)]
binding [4]: binds | binding [5]: binds | binding [6]: binds | binding [1]: binds

B1: Ma PmsvR 1 bp insertion between boxes (dsDNA)
DNA 1: TATTTCAAACATGATTATTCGTAGTTCACGCGAACGTTTTATATATTCAAA
DNA 2: TTTGAATATATAAAACGTTCGCGTGAACTACGAATAATCATGTTTGAAATA
binding result [7]: binds

B2: Ma PmsvR 1 bp deletion between boxes (dsDNA)
DNA 1: TATTTCAAACATGATTATTCGTAGCACGCGAACGTTTTATATATTCAAA
DNA 2: TTTGAATATATAAAACGTTCGCGTGCTACGAATAATCATGTTTGAAATA
binding result [7]: binds

B3: Ma PmsvR flanks replaced (dsDNA)
DNA 1: GAGGGAATGAAATCCTCTTCGTAGTCACGCGAAAATGGACAAGTCTGATT
DNA 2: AATCAGACTTGTCCATTTTCGCGTGACTACGAAGAGGATTTCATTCCCTC
binding result [7]: no binding

B4: Ma PmsvR 50 bp box A mutant (dsDNA)
DNA 1: TATTTCAAACATGATTAGGGGTAGTCACGCGAACGTTTTATATATTCAAA
DNA 2: TTTGAATATATAAAACGTTCGCGTGACTACCCCTAATCATGTTTGAAATA
binding result [8]: no binding

B5: Ma PmsvR 50 bp box B mutant (dsDNA)
DNA 1: TATTTCAAACATGATTATTCGTAGTCACGGGGGCGTTTTATATATTCAAA
DNA 2: TTTGAATATATAAAACGCCCCCGTGACTACGAATAATCATGTTTGAAATA
binding result [8]: no binding
